From US20220348631A1
Values joined by “and” are separate entries in the source; they are usually repeats but may differ in a detail not shown here. Identical values can stand only once.

How the values were obtained:
Assay in all cases: cell-based or functional assay
[1] = biological target: carcinoembryonic antigen (CEA) on LoVo, LS174T or H508 tumor cells (UniProt P06731)
[2] = biological target: PD-L1 on LoVo / LoVo.OKT3.GFP cells (UniProt Q9NZQ7)
[3] = biological target: Human folate receptor alpha (FolR) on cells (human) (UniProt P15328)
Chain of UniProt P15328 (P15328 25-234): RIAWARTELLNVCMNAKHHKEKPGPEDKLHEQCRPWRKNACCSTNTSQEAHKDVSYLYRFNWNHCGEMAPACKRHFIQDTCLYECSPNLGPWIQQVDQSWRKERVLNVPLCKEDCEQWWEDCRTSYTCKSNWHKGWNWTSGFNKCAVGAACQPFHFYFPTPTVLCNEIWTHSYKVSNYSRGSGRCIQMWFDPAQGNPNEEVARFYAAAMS

Chain of UniProt P06731 (P06731 35-702 limits assumed): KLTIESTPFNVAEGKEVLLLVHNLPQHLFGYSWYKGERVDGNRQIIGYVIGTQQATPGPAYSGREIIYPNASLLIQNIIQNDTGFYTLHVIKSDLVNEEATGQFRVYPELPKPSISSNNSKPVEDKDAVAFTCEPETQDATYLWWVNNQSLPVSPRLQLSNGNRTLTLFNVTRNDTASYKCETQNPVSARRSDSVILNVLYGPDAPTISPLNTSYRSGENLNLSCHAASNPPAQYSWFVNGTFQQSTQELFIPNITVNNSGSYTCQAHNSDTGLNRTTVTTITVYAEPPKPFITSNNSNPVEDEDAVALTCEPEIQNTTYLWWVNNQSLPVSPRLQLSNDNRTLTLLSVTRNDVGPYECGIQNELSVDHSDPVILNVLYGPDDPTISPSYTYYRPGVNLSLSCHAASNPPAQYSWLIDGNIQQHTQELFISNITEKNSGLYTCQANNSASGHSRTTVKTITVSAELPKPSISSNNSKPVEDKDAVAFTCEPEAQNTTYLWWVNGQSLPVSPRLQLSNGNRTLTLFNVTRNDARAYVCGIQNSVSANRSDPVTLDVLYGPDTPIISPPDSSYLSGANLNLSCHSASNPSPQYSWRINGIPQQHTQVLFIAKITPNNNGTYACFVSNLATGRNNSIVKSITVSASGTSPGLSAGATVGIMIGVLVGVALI
Chain of UniProt Q9NZQ7 (Q9NZQ7 19-290 limits assumed): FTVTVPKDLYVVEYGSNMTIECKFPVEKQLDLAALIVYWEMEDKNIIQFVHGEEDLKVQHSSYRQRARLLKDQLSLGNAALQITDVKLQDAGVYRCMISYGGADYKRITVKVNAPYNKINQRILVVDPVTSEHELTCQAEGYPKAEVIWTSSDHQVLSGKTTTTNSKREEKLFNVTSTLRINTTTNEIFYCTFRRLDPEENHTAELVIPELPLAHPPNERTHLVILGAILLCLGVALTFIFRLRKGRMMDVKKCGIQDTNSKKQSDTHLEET

For “CTP195 OSM_MFE23_spCD28_CD28_CD40 (SVQE-AVQA) (receptor)”, the IFNγ (ELISA) after 24 h with LoVo-OKT3 [1] was greater than 30 ng/mL and the IL-2 (ELISA) after 24 h with LoVo-OKT3 [1] was 4000 pg/mL.
“CTP194 OSM_MFE23_spCD28_CD28_CD40 (receptor)” showed an IFNγ (ELISA) after 24 h with LoVo-OKT3 [1] greater than 30 ng/mL, an IFNγ (ELISA), coculture with LoVo-OKT3 [1] of 1000 pg/mL and an IL-2 (ELISA) after 24 h with LoVo-OKT3 [1] of 4000 pg/mL. The IL-2 (ELISA), coculture with LoVo-OKT3 [1] was 4000 pg/mL, the IL-2 secretion (ELISA), 24 h coculture with LoVo-OKT3 [1] was 4000 pg/mL and the IL-2 secretion (ELISA), coculture with LoVo-OKT3 [1] was 29 ng/mL. The T-cell expansion over 18 days with LoVo-OKT3 and IL-2 [1] was greater than 60 fold, the fold expansion after two rounds of stimulation with LoVo-OKT3 [1] was 10 fold and the fold expansion on serial stimulation with LoVo-OKT3 [1] was 12 fold. The fold expansion with LoVo-OKT3, after restimulation (day 14-15) [1] was greater than 10 fold and the fold expansion with LoVo-OKT3, first time point (day 6-8) [1] was 4 fold.
For “CTP196 OSM_MFE23_spCD28_CD28_CD40 (PVQET-AVAEA) (receptor)”, the IFNγ (ELISA) after 24 h with LoVo-OKT3 [1] was 10 ng/mL.
Substance “CTP198 OSM_MFE23_spCD28_CD28_CD40 (P227A) (receptor)” has an IFNγ (ELISA) after 24 h with LoVo-OKT3 [1] greater than 30 ng/mL and an IL-2 (ELISA) after 24 h with LoVo-OKT3 [1] of 4000 pg/mL.
“CTP197 OSM_MFE23_spCD28_CD28_CD40 (PQEINF-AQAINF) (receptor)” was tested, and the IFNγ (ELISA) after 24 h with LoVo-OKT3 [1] was greater than 30 ng/mL.
In the case of “CTP188 PD1_PD1_sCD28TM_CD28_CD40 (dimeric) (receptor)”, the IL-2 secretion (ELISA), 24 h coculture with LoVo-OKT3 [2] is reported as less than 1000 pg/mL.
Work on “MFE23 CD28(IEV) truncated CoStAR (receptor)” yielded an IL-2 secretion (ELISA), coculture with LoVo-OKT3 [1] of 4.6 ng/mL.
In the case of “MOV19.CD28.CD40 CoStAR (OSM_MOV19_spCD28_CD28_CD40) (receptor)”, the CD137 expression [3] is reported as 50%, the CD137 expression in CoStAR+ TIL, coculture with FolR high expressing tumor digest [3] is reported as 50% and the CD137 expression in CoStAR+ TIL, coculture with FolR low expressing tumor digest [3] is reported as greater than 20%. The IL-2 production [3] was 5%, the TNFα production [3] was 15% and the enhancement of Bcl-XL induction in the presence of OvCAR-OKT3 [3] was 35%. For the same substance, the enhancement of IL-2 induction in the presence of OvCAR-OKT3 [3] was 30 to 50%, the enhancement of TNFα production in the presence of OvCAR-OKT3 [3] was 25% and 50% and the mean fold expansion of T cells, 21 days with OvCAR-OKT3 [3] was 1300 fold.
“MOV19.CD28 CoStAR (from UniProt P10747 19-220) (receptor)” showed an enhancement of Bcl-XL induction in the presence of OvCAR-OKT3 [3] of 20%, an enhancement of IL-2 induction in the presence of OvCAR-OKT3 [3] of 20% and an enhancement of TNFα production in the presence of OvCAR-OKT3 [3] of 20 to 30%. The mean fold expansion of T cells, 21 days with OvCAR-OKT3 [3] was 187 fold.
“CTP202 OSM_MFE23_spCD28_CD28 (YMNM-FMNM)_CD40 (receptor)” gave an IL-2 (ELISA), coculture with LoVo-OKT3 [1] of 2500 pg/mL.
In the case of “CTP200 OSM_MFE23_spCD28_CD28_CD40_CD40_CD40 (receptor)”, the IFNγ (ELISA) after 24 h with LoVo-OKT3 [1] is reported as greater than 30 ng/mL.
Substance “CTP201 OSM_MFE23_spCD28_CD28 (PYAPP-AYAA)_CD40 (receptor)” has an IFNγ (ELISA), coculture with LoVo-OKT3 [1] of 1000 pg/mL and an IL-2 (ELISA), coculture with LoVo-OKT3 [1] of 2500 pg/mL.
For “CTP189 PD1_PD1_sCD28TM_CD28_CD40 (monomeric) (receptor)”, the IL-2 secretion (ELISA), 24 h coculture with LoVo-OKT3 [2] was less than 1000 pg/mL.
